Substitutions are numbered along the chain they refer to. Names may count otherwise. Each block holds one binder with its values, some of them ahead of it.
Target: T1, CD3 epsilon homodimer protein (UniProt P07766 23-126)
T1 construct: also called CD3 (CD3 epsilon)
Experiment: SPR Biacore T200, antibody over immobilised CD3e homodimer;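 also: CD3 epsilon homodimer amine-coupled on a CM4 chip, run at 25 °C in HBS-EP+, Z = bound amount of each single-residue H chain variant over that of the parent antibody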
Description: An appropriate amount of CD3 epsilon homodimer protein was immobilized onto Sensor chip CM4 (GE Healthcare Japan Corp.) by the amine coupling method. Then, the antibody having an appropriate concentration was injected thereto as an analyte and allowed to interact with the CD3 epsilon homodimer protein on the sensor chip. Then, the sensor chip was regenerated by the injection of 10 mmol/L glycine-HCl (pH 1.5). The assay was conducted at 25 degrees C., and HBS-EP+(GE Healthcare Japan Corp.) was used as a running buffer. […] Each parameter was calculated using Biacore T200 Evaluation Software (GE Healthcare Japan Corp.).
Specifically, when the amount of the antibody comprising CE115HA000 bound was defined as X and the amount of the H chain one-amino acid altered form bound was defined as Y, a value of Z (ratio of amounts bound)=Y/X was used.

T1 sequence (P07766 23-126): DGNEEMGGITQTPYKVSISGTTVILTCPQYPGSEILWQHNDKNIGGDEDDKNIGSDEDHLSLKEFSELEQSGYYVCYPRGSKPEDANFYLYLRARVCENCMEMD

B1: CE115HA000 A56D one-arm antibody (antibody, human IgG1, kappa, L234A L235A, N297A, name in Kabat numbering)
heavy: QVQLVESGGGVVQPGRSLRLSCAASGFTFSNAWMHWVRQAPGKGLEWVAQIKAKSNNYDTYYAESVKGRFTISRDDSKNSLYLQMNSLKTEDTAVYYCRYVHYGAYYGVDAWGQGTTVTVSSASTKGPSVFPLAPSSKSTSGGTAALGCLVKDYFPEPVTVSWNSGALTSGVHTFPAVLQSSGLYSLSSVVTVPSSSLGTQTYICNVNHKPSNTKVDKKVEPKSCDKTHTCPPCPAPEAAGGPSVFLFPPKPKDTLMISRTPEVTCVVVDVSHEDPEVKFNWYVDGVEVHNAKTKPREEQYASTYRVVSVLTVLHQDWLNGKEYKCKVSNKALPAPIEKTISKAKGQPREPQVYTLPPSRCELTKNQVSLSCAVKGFYPSDIAVEWESNGQPENNYKTTPPVLDSDGSFFLVSKLTVDKSRWQQGNVFSCSVMHEALHNHYTQKSLSLSPDYKDDDDK
chain: EPKSSDKTHTCPPCPAPELLGGPSVFLFPPKPKDTLMISRTPEVTCVVVDVSHEDPEVKFNWYVDGVEVHNAKTKPREEQYNSTYRVVSVLTVLHQDWLNGKEYKCKVSNKALPAPIEKTISKAKGQPREPQVCTLPPSRDELTKNQVSLWCLVKGFYPSDIAVEWESNGQPENNYKTTPPVLDSDGSFFLYSKLTVDKSRWQQGNVFSCSVMHEALHNRYTQKSLSLSP
light: DIVMTQSPLSLPVTPGEPASISCRSSQSLVHSNRNTYLHWYQQKPGQAPRLLIYKVSNRFSGVPDRFSGSGSGTDFTLKISRVEAEDVGVYYCGQGTQVPYTFGQGTKLEIKRTVAAPSVFIFPPSDEQLKSGTASVVCLLNNFYPREAKVQWKVDNALQSGNSQESVTEQDSKDSTYSLSSTLTLSKADYEKHKVYACEVTHQGLSSPVTKSFNRGEC
notes: one-arm antibody
ratio of amounts bound (Z=Y/X vs CE115HA000): 0.51

B5: CE115HA000 A60E one-arm antibody (antibody, human IgG1, kappa, L234A L235A, N297A, name in Kabat numbering)
heavy: B1 heavy with D59A, A63E
chain: B1 chain
light: B1 light
notes: one-arm antibody
ratio of amounts bound (Z=Y/X vs CE115HA000): 0.94

B7: CE115HA000 D72E one-arm antibody (antibody, human IgG1, kappa, L234A L235A, N297A, name in Kabat numbering)
heavy: B1 heavy with D59A, D75E
chain: B1 chain
light: B1 light
notes: one-arm antibody
ratio of amounts bound (Z=Y/X vs CE115HA000): 1.05

B9: CE115HA000 D72A one-arm antibody (antibody, human IgG1, kappa, L234A L235A, N297A, name in Kabat numbering)
heavy: B1 heavy with D59A, D75A
chain: B1 chain
light: B1 light
notes: one-arm antibody
ratio of amounts bound (Z=Y/X vs CE115HA000): 1.41

B10: CE115HA000 A56G one-arm antibody (antibody, human IgG1, kappa, L234A L235A, N297A, name in Kabat numbering)
heavy: B1 heavy with D59G
chain: B1 chain
light: B1 light
notes: one-arm antibody
ratio of amounts bound (Z=Y/X vs CE115HA000): 0.61

B11: CE115HA000 A60D one-arm antibody (antibody, human IgG1, kappa, L234A L235A, N297A, name in Kabat numbering)
heavy: B1 heavy with D59A, A63D
chain: B1 chain
light: B1 light
notes: one-arm antibody
ratio of amounts bound (Z=Y/X vs CE115HA000): 0.99

B13: CE115HA000 A56K one-arm antibody (antibody, human IgG1, kappa, L234A L235A, N297A, name in Kabat numbering)
heavy: B1 heavy with D59K
chain: B1 chain
light: B1 light
notes: one-arm antibody
ratio of amounts bound (Z=Y/X vs CE115HA000): 1.35

B14: CE115HA000 D73K one-arm antibody (antibody, human IgG1, kappa, L234A L235A, N297A, name in Kabat numbering)
heavy: B1 heavy with D59A, D76K
chain: B1 chain
light: B1 light
notes: one-arm antibody
ratio of amounts bound (Z=Y/X vs CE115HA000): 0.87

B20: CE115HA000 E61A one-arm antibody (antibody, human IgG1, kappa, L234A L235A, N297A, name in Kabat numbering)
heavy: B1 heavy with D59A, E64A
chain: B1 chain
light: B1 light
notes: one-arm antibody
ratio of amounts bound (Z=Y/X vs CE115HA000): 1.09

B21: CE115HA000 E61D one-arm antibody (antibody, human IgG1, kappa, L234A L235A, N297A, name in Kabat numbering)
heavy: B1 heavy with D59A, E64D
chain: B1 chain
light: B1 light
notes: one-arm antibody
ratio of amounts bound (Z=Y/X vs CE115HA000): 0.91

B24: CE115HA000 D73E one-arm antibody (antibody, human IgG1, kappa, L234A L235A, N297A, name in Kabat numbering)
heavy: B1 heavy with D59A, D76E
chain: B1 chain
light: B1 light
notes: one-arm antibody
ratio of amounts bound (Z=Y/X vs CE115HA000): 0.73

B28: CE115HA000 F29V one-arm antibody (antibody, human IgG1, kappa, L234A L235A, N297A, name in Kabat numbering)
heavy: B1 heavy with F29V, D59A
chain: B1 chain
light: B1 light
notes: one-arm antibody
ratio of amounts bound (Z=Y/X vs CE115HA000): 0.36

B29: CE115HA000 D73A one-arm antibody (antibody, human IgG1, kappa, L234A L235A, N297A, name in Kabat numbering)
heavy: B1 heavy with D59A, D76A
chain: B1 chain
light: B1 light
notes: one-arm antibody
ratio of amounts bound (Z=Y/X vs CE115HA000): 0.83

B32: CE115HA000 D73G one-arm antibody (antibody, human IgG1, kappa, L234A L235A, N297A, name in Kabat numbering)
heavy: B1 heavy with D59A, D76G
chain: B1 chain
light: B1 light
notes: one-arm antibody
ratio of amounts bound (Z=Y/X vs CE115HA000): 1.07

Second part, the binder after the results:

ratio of amounts bound (Z=Y/X vs CE115HA000): 0.12
B2: CE115HA000 H35I one-arm antibody (antibody, human IgG1, kappa, L234A L235A, N297A, name in Kabat numbering)
heavy: B1 heavy with H35I, D59A
chain: B1 chain
light: B1 light
notes: one-arm antibody

ratio of amounts bound (Z=Y/X vs CE115HA000): 0.26
B3: CE115HA000 H35T one-arm antibody (antibody, human IgG1, kappa, L234A L235A, N297A, name in Kabat numbering)
heavy: B1 heavy with H35T, D59A
chain: B1 chain
light: B1 light
notes: one-arm antibody

ratio of amounts bound (Z=Y/X vs CE115HA000): 0.29
B4: CE115HA000 I51D one-arm antibody (antibody, human IgG1, kappa, L234A L235A, N297A, name in Kabat numbering)
heavy: B1 heavy with I51D, D59A
chain: B1 chain
light: B1 light
notes: one-arm antibody

ratio of amounts bound (Z=Y/X vs CE115HA000): 0.22
B6: CE115HA000 H35G one-arm antibody (antibody, human IgG1, kappa, L234A L235A, N297A, name in Kabat numbering)
heavy: B1 heavy with H35G, D59A
chain: B1 chain
light: B1 light
notes: one-arm antibody

ratio of amounts bound (Z=Y/X vs CE115HA000): 0.23
B8: CE115HA000 H35S one-arm antibody (antibody, human IgG1, kappa, L234A L235A, N297A, name in Kabat numbering)
heavy: B1 heavy with H35S, D59A
chain: B1 chain
light: B1 light
notes: one-arm antibody

ratio of amounts bound (Z=Y/X vs CE115HA000): 0.76
B12: CE115HA000 G65D one-arm antibody (antibody, human IgG1, kappa, L234A L235A, N297A, name in Kabat numbering)
heavy: B1 heavy with D59A, G68D
chain: B1 chain
light: B1 light
notes: one-arm antibody

ratio of amounts bound (Z=Y/X vs CE115HA000): 0.11
B15: CE115HA000 H35L one-arm antibody (antibody, human IgG1, kappa, L234A L235A, N297A, name in Kabat numbering)
heavy: B1 heavy with H35L, D59A
chain: B1 chain
light: B1 light
notes: one-arm antibody

ratio of amounts bound (Z=Y/X vs CE115HA000): 0.35
B16: CE115HA000 H35N one-arm antibody (antibody, human IgG1, kappa, L234A L235A, N297A, name in Kabat numbering)
heavy: B1 heavy with H35N, D59A
chain: B1 chain
light: B1 light
notes: one-arm antibody

ratio of amounts bound (Z=Y/X vs CE115HA000): 0.22
B17: CE115HA000 H35W one-arm antibody (antibody, human IgG1, kappa, L234A L235A, N297A, name in Kabat numbering)
heavy: B1 heavy with H35W, D59A
chain: B1 chain
light: B1 light
notes: one-arm antibody

ratio of amounts bound (Z=Y/X vs CE115HA000): 0.78
B18: CE115HA000 G65E one-arm antibody (antibody, human IgG1, kappa, L234A L235A, N297A, name in Kabat numbering)
heavy: B1 heavy with D59A, G68E
chain: B1 chain
light: B1 light
notes: one-arm antibody

ratio of amounts bound (Z=Y/X vs CE115HA000): 0.19
B19: CE115HA000 H35E one-arm antibody (antibody, human IgG1, kappa, L234A L235A, N297A, name in Kabat numbering)
heavy: B1 heavy with H35E, D59A
chain: B1 chain
light: B1 light
notes: one-arm antibody

ratio of amounts bound (Z=Y/X vs CE115HA000): 0.14
B22: CE115HA000 H35R one-arm antibody (antibody, human IgG1, kappa, L234A L235A, N297A, name in Kabat numbering)
heavy: B1 heavy with H35R, D59A
chain: B1 chain
light: B1 light
notes: one-arm antibody

ratio of amounts bound (Z=Y/X vs CE115HA000): 0.21
B23: CE115HA000 H35F one-arm antibody (antibody, human IgG1, kappa, L234A L235A, N297A, name in Kabat numbering)
heavy: B1 heavy with H35F, D59A
chain: B1 chain
light: B1 light
notes: one-arm antibody

ratio of amounts bound (Z=Y/X vs CE115HA000): 0.13
B25: CE115HA000 H35Q one-arm antibody (antibody, human IgG1, kappa, L234A L235A, N297A, name in Kabat numbering)
heavy: B1 heavy with H35Q, D59A
chain: B1 chain
light: B1 light
notes: one-arm antibody

ratio of amounts bound (Z=Y/X vs CE115HA000): 0.15
B26: CE115HA000 H35K one-arm antibody (antibody, human IgG1, kappa, L234A L235A, N297A, name in Kabat numbering)
heavy: B1 heavy with H35K, D59A
chain: B1 chain
light: B1 light
notes: one-arm antibody

ratio of amounts bound (Z=Y/X vs CE115HA000): 0.16
B27: CE115HA000 H35Y one-arm antibody (antibody, human IgG1, kappa, L234A L235A, N297A, name in Kabat numbering)
heavy: B1 heavy with H35Y, D59A
chain: B1 chain
light: B1 light
notes: one-arm antibody

ratio of amounts bound (Z=Y/X vs CE115HA000): 0.2
B30: CE115HA000 H35D one-arm antibody (antibody, human IgG1, kappa, L234A L235A, N297A, name in Kabat numbering)
heavy: B1 heavy with H35D, D59A
chain: B1 chain
light: B1 light
notes: one-arm antibody

ratio of amounts bound (Z=Y/X vs CE115HA000): 0.29
B31: CE115HA000 H35M one-arm antibody (antibody, human IgG1, kappa, L234A L235A, N297A, name in Kabat numbering)
heavy: B1 heavy with H35M, D59A
chain: B1 chain
light: B1 light
notes: one-arm antibody

ratio of amounts bound (Z=Y/X vs CE115HA000): 0.22
B33: CE115HA000 H35V one-arm antibody (antibody, human IgG1, kappa, L234A L235A, N297A, name in Kabat numbering)
heavy: B1 heavy with H35V, D59A
chain: B1 chain
light: B1 light
notes: one-arm antibody
